This assay relates to PP2A-B55α. The assay is described as follows: Single alanine mutational scan, YFP-tagged interactors immunoprecipitated from HeLa cells, Western blot. The class given is binding, human. The method, then: Standard cloning techniques were used throughout. Point mutations were introduced by whole plasmid polymerase chain reaction (PCR). All constructs were fully sequenced. Synthetic DNA was purchased from GeneArt, Life Technologies and cloned into pcDNA5/FRT/TO (Invitrogen) expression vector containing YFP, resulting in the indicated YFP fusion proteins. These constructs were transiently transfected into HeLa cells 24 hours before harvesting cells. Cells were lysed in lysis buffer [50 mM tris-HCl (pH 7.5), 50 mM NaCl, 1 mM EDTA, 1 mM […], and 0.1% NP-40]. Complexes were immunoprecipitated at 4°C in lysis buffer with green fluorescent protein (GFP)–Trap (ChromoTek) and washed in lysis buffer. Precipitated protein complexes were washed three times in lysis buffer, eluted in 2× SDS sample buffer, and subjected to Western blotting or MS as indicated.

Where [1] appears, read: single alanine mutant of YFP-tagged EYA3.
Setting [2] is: single alanine mutant of YFP-tagged AMOTL2.

Substitutions are numbered along the chain they refer to.

B1: EYA3 T88: EYA3, T88 to alanine (protein, UniProt Q99504 1-573, looked up, variant T88A)
Protein phosphatase EYA3: MEEEQDLPEQPVKKAKMQESGEQTISQVSNPDVSDQKPETSSLASNLPMSEEIMTCTDYIPRSSNDYTSQMYSAKPYAHILSVPVSEAAYPGQTQYQTLQQTQPYAVYPQATQTYGLPPFGALWPGMKPESGLIQTPSPSQHSVLTCTTGLTTSQPSPAHYSYPIQASSTNASLISTSSTIANIPAAAVASISNQDYPTYTILGQNQYQACYPSSSFGVTGQTNSDAESTTLAATTYQSEKPSVMAPAPAAQRLSSGDPSTSPSLSQTTPSKDTDDQSRKNMTSKNRGKRKADATSSQDSELERVFLWDLDETIIIFHSLLTGSYAQKYGKDPTVVIGSGLTMEEMIFEVADTHLFFNDLEECDQVHVEDVASDDNGQDLSNYSFSTDGFSGSGGSGSHGSSVGVQGGVDWMRKLAFRYRKVREIYDKHKSNVGGLLSPQRKEALQRLRAEIEVLTDSWLGTALKSLLLIQSRKNCVNVLITTTQLVPALAKVLLYGLGEIFPIENIYSATKIGKESCFERIVSRFGKKVTYVVIGDGRDEEIAAKQHNMPFWRITNHGDLVSLHQALELDFL
Regarding B1, the Experimental % binding under setting [1] was 1%.

B2: EYA3 L81: EYA3, L81 to alanine (protein, UniProt Q99504 1-573, looked up, variant L81A)
Protein phosphatase EYA3: B1 Protein phosphatase EYA3 with L81A, A88T
B2 displayed an Experimental % binding under setting [1] of 20%.

B3: EYA3 H79: EYA3, H79 to alanine (protein, UniProt Q99504 1-573, looked up, variant H79A)
Protein phosphatase EYA3: B1 Protein phosphatase EYA3 with H79A, A88T
B3 registered an Experimental % binding under setting [1] of 10%.

B4: EYA3 Y90: EYA3, Y90 to alanine (protein, UniProt Q99504 1-573, looked up, variant Y90A)
Protein phosphatase EYA3: B1 Protein phosphatase EYA3 with A88T, Y90A
Under setting [1], B4 registered an Experimental % binding of 5%.

B5: EYA3 P91: EYA3, P91 to alanine (protein, UniProt Q99504 1-573, looked up, variant P91A)
Protein phosphatase EYA3: B1 Protein phosphatase EYA3 with A88T, P91A
Consider B5, for which the Experimental % binding under setting [1] is on record as 5%.

B6: EYA3 Y77: EYA3, Y77 to alanine (protein, UniProt Q99504 1-573, looked up, variant Y77A)
Protein phosphatase EYA3: B1 Protein phosphatase EYA3 with Y77A, A88T
Take B6: under setting [1], the Experimental % binding came out at 20%.

B7: EYA3 I80: EYA3, I80 to alanine (protein, UniProt Q99504 1-573, looked up, variant I80A)
Protein phosphatase EYA3: B1 Protein phosphatase EYA3 with I80A, A88T
For the molecule B7, under setting [1], the Experimental % binding amounted to 5%.

B8: EYA3 K75: EYA3, K75 to alanine (protein, UniProt Q99504 1-573, looked up, variant K75A)
Protein phosphatase EYA3: B1 Protein phosphatase EYA3 with K75A, A88T
In turn, B8 returned an Experimental % binding under setting [1] of 45%.

B9: AMOTL2 R14: AMOTL2, R14 to alanine (protein, UniProt Q9Y2J4 1-779, looked up, variant R14A)
Angiomotin-like protein 2: MRTLEDSSGTVLHALIQEQLRYGNLTETRTLLAIQQQALRGGAGTGGTGSPQASLEILAPEDSQVLQQATRQEPQGQEHQGGENHLAENTLYRLCPQPSKGEELPTYEEAKAHSQYYAAQQAGTRPHAGDRDPRGAPGGSRRQDEALRELRHGHVRSLSERLLQLSLERNGARAPSHMSSSHSFPQLARNQQGPPLRGPPAEGPESRGPPPQYPHVVLAHETTTAVTDPRYRARGSPHFQHAEVRILQAQVPPVFLQQQQQYQYLQQSQEHPPPPHPAALGHGPLSSLSPPAVEGPVSAQASSATSGSAHLAQMEAVLRENARLQRDNERLQRELESSAEKAGRIEKLESEIQRLSEAHESLTRASSKREALEKTMRNKMDSEMRRLQDFNRDLRERLESANRRLASKTQEAQAGSQDMVAKLLAQSYEQQQEQEKLEREMALLRGAIEDQRRRAELLEQALGNAQGRAARAEEELRKKQAYVEKVERLQQALGQLQAACEKREQLELRLRTRLEQELKALRAQQRQAGAPGGSSGSGGSPELSALRLSEQLREKEEQILALEADMTKWEQKYLEERAMRQFAMDAAATAAAQRDTTLIRHSPQPSPSSSFNEGLLTGGHRHQEMESRLKVLHAQILEKDAVIKVLQQRSRRDPGKAIQGSLRPAKSVPSVFAAAAAGTQGWQGLSSSERQTADAPARLTTDRAPTEEPVVTAPPAAHAKHGSRDGSTQTEGPPDSTSTCLPPEPDSLLGCSSSQRAASLDSVATSRVQDLSDMVEILI
Regarding B9, the Experimental % binding under setting [2] is listed as 15%.

B10: AMOTL2 R21: AMOTL2, R21 to alanine (protein, UniProt Q9Y2J4 1-779, looked up, variant R21A)
Angiomotin-like protein 2: B9 Angiomotin-like protein 2 with A14R, R21A
Under setting [2], B10 registered an Experimental % binding of 60%.

B11: AMOTL2 I34: AMOTL2, I34 to alanine (protein, UniProt Q9Y2J4 1-779, looked up, variant I34A)
Angiomotin-like protein 2: B9 Angiomotin-like protein 2 with A14R, I34A
Under setting [2], B11 returned an Experimental % binding of 15%.

B12: AMOTL2 L20: AMOTL2, L20 to alanine (protein, UniProt Q9Y2J4 1-779, looked up, variant L20A)
Angiomotin-like protein 2: B9 Angiomotin-like protein 2 with A14R, L20A
The molecule B12 displayed an Experimental % binding under setting [2] of 98%.

B13: AMOTL2 E18: AMOTL2, E18 to alanine (protein, UniProt Q9Y2J4 1-779, looked up, variant E18A)
Angiomotin-like protein 2: B9 Angiomotin-like protein 2 with A14R, E18A
B13 yielded an Experimental % binding under setting [2] of 133%.

B14: AMOTL2 T30: AMOTL2, T30 to alanine (protein, UniProt Q9Y2J4 1-779, looked up, variant T30A)
Angiomotin-like protein 2: B9 Angiomotin-like protein 2 with A14R, T30A
With B14, the Experimental % binding under setting [2] was found to be 85%.

B15: AMOTL2 E27: AMOTL2, E27 to alanine (protein, UniProt Q9Y2J4 1-779, looked up, variant E27A)
Angiomotin-like protein 2: B9 Angiomotin-like protein 2 with A14R, E27A
Consider B15, for which, under setting [2], the Experimental % binding stood at 165%.

B16: AMOTL2 H13: AMOTL2, H13 to alanine (protein, UniProt Q9Y2J4 1-779, looked up, variant H13A)
Angiomotin-like protein 2: B9 Angiomotin-like protein 2 with H13A, A14R
Under setting [2], B16 registered an Experimental % binding of 110%.

B17: AMOTL2 Q36: AMOTL2, Q36 to alanine (protein, UniProt Q9Y2J4 1-779, looked up, variant Q36A)
Angiomotin-like protein 2: B9 Angiomotin-like protein 2 with A14R, Q36A
In the case of B17, the Experimental % binding under setting [2] was 76%.

B18: AMOTL2 V11: AMOTL2, V11 to alanine (protein, UniProt Q9Y2J4 1-779, looked up, variant V11A)
Angiomotin-like protein 2: B9 Angiomotin-like protein 2 with V11A, A14R
B18 displayed an Experimental % binding under setting [2] of 114%.

B19: AMOTL2 Y22: AMOTL2, Y22 to alanine (protein, UniProt Q9Y2J4 1-779, looked up, variant Y22A)
Angiomotin-like protein 2: B9 Angiomotin-like protein 2 with A14R, Y22A
B19: under setting [2], the Experimental % binding came to 25%.

B20: AMOTL2 L12: AMOTL2, L12 to alanine (protein, UniProt Q9Y2J4 1-779, looked up, variant L12A)
Angiomotin-like protein 2: B9 Angiomotin-like protein 2 with L12A, A14R
In turn, B20 had an Experimental % binding under setting [2] of 88%.

B21: AMOTL2 I16: AMOTL2, I16 to alanine (protein, UniProt Q9Y2J4 1-779, looked up, variant I16A)
Angiomotin-like protein 2: B9 Angiomotin-like protein 2 with A14R, I16A
The molecule B21 came in with an Experimental % binding under setting [2] of 32%.

B22: AMOTL2 L15: AMOTL2, L15 to alanine (protein, UniProt Q9Y2J4 1-779, looked up, variant L15A)
Angiomotin-like protein 2: B9 Angiomotin-like protein 2 with A14R, L15A
In the case of B22, the Experimental % binding under setting [2] was found to be 32%.

B23: AMOTL2 L32: AMOTL2, L32 to alanine (protein, UniProt Q9Y2J4 1-779, looked up, variant L32A)
Angiomotin-like protein 2: B9 Angiomotin-like protein 2 with A14R, L32A
As to B23, the Experimental % binding under setting [2] came out at 118%.

B24: AMOTL2 Q19: AMOTL2, Q19 to alanine (protein, UniProt Q9Y2J4 1-779, looked up, variant Q19A)
Angiomotin-like protein 2: B9 Angiomotin-like protein 2 with A14R, Q19A
Consider B24, for which, under setting [2], the Experimental % binding turned out to be 120%.

B25: AMOTL2 Q37: AMOTL2, Q37 to alanine (protein, UniProt Q9Y2J4 1-779, looked up, variant Q37A)
Angiomotin-like protein 2: B9 Angiomotin-like protein 2 with A14R, Q37A
B25 had an Experimental % binding under setting [2] of 44%.

B26: AMOTL2 R29: AMOTL2, R29 to alanine (protein, UniProt Q9Y2J4 1-779, looked up, variant R29A)
Angiomotin-like protein 2: B9 Angiomotin-like protein 2 with A14R, R29A
Regarding B26, under setting [2], the Experimental % binding is on record as 4%.

B27: AMOTL2 L31: AMOTL2, L31 to alanine (protein, UniProt Q9Y2J4 1-779, looked up, variant L31A)
Angiomotin-like protein 2: B9 Angiomotin-like protein 2 with A14R, L31A
With B27, the Experimental % binding under setting [2] turned out to be 115%.

B28: AMOTL2 T10: AMOTL2, T10 to alanine (protein, UniProt Q9Y2J4 1-779, looked up, variant T10A)
Angiomotin-like protein 2: B9 Angiomotin-like protein 2 with T10A, A14R
Turning to B28, the Experimental % binding under setting [2] is recorded as 104%.

B29: AMOTL2 Q35: AMOTL2, Q35 to alanine (protein, UniProt Q9Y2J4 1-779, looked up, variant Q35A)
Angiomotin-like protein 2: B9 Angiomotin-like protein 2 with A14R, Q35A
As for B29, the Experimental % binding under setting [2] is listed as 61%.

B30: AMOTL2 Q17: AMOTL2, Q17 to alanine (protein, UniProt Q9Y2J4 1-779, looked up, variant Q17A)
Angiomotin-like protein 2: B9 Angiomotin-like protein 2 with A14R, Q17A
B30 had an Experimental % binding under setting [2] of 143%.

B31: AMOTL2 T28: AMOTL2, T28 to alanine (protein, UniProt Q9Y2J4 1-779, looked up, variant T28A)
Angiomotin-like protein 2: B9 Angiomotin-like protein 2 with A14R, T28A
B31: the Experimental % binding under setting [2] is on record as 4%.
